The record followed here is patent US6566083B1, “Method of detecting biologically active substances” (Novo Nordisk A/S, priority 1995, dated 2003).

The target in test [1] is wild-type green fluorescent protein (GFP) derived from the jellyfish Aequorea victoria (Aequorea victoria) [GFP: P42212]. In words: cell-based or functional assay.
Test [2] has as its target T1, catalytic subunit of the cAMP dependent protein kinase (Bos taurus, UniProt P00517).
T1 construct: purchased Promega
As to the kind of experiment: In vitro GFP phosphorylation assay. The class given is biochemical. Particulars: 0.5 μg GFP, 10 casein units kinase, 0.2 mM ATP, 5 minutes at 37° C., excitation 395 nm (FIG. 3). The method, then: For in vitro phosphorylation of GFP, 0.5 μg wild-type GFP (purified as described above) in 40 mM Tris, pH 7.4, 20 mM MgOAc and 0.2 mM ATP (all from Sigma, St. Louis, Mo., USA) was incubated for 1-60 minutes at 37° C. with 0-20 casein units of the catalytic subunit of the cAMP dependent protein kinase (Promega, Madison, Wis. USA) and 0-200 μM cAMP dependent protein kinase inhibitor. Emission (excitation wavelength 395 nm or 470 nm) and excitation (emission wavelength 508 nm) spectra were acquired for all samples using the LS50B Luminescence Spectrometer and the FL data Manager software package (Perkin Elmer). The spectra were subsequently compared by using the Graph Builder software package (Perkin Elmer).
The control (w/o PKA) was incubated 5 minutes at 37° C. without the catalytic subunit of the cAMP dependent protein kinase. The excitation wavelength was 395 nm. RFI in the figure means relative fluorescence intensity.

With “catalytic subunit of the cAMP dependent protein kinase (Promega) (enzyme)”, the fluorescence intensity of wild-type GFP (emission spectra, excitation 395 nm) after in vitro phosphorylation in test [1] is 2 fold. Take “wild-type GFP: wild-type green fluorescent protein derived from the jellyfish Aequorea victoria, SEQ ID NO: 32, purified from E. coli”: in test [2], the “increase of fluorescence intensity when incubated with the catalytic subunit of the cAMP dependent protein kinase” value is recorded as “approximately two-fold”.
